From patent US20200199533A1 (KING ABDULLAH UNIVERSITY OF SCIENCE AND TECHNOLOGY, published 2020)

How the values were obtained:
[1] = molecular target: CD44 (HCELL), native glycoprotein from human HSPCs (KG1a, CD34^pos fraction) (human) (UniProt P16070); assay: SPR, from the binding isotherm; CD44 captured from KG1a lysate
[2] = molecular target: CD44 (HCELL), native glycoprotein from human HSPCs (KG1a, CD34^pos fraction) (human) (UniProt P16070); assay: SPR; CD44 captured from KG1a lysate on Hermes-3-mAb, E-Ig injected, 150 mM NaCl; apparent rate constant; 3rd experiment
[3] = molecular target: T1, CD34, native glycoprotein from human HSPCs (KG1a, CD34^pos-BM, CD34^pos-UCB, CD34^pos-AML) (human, UniProt P28906 32-385, native glycosylation (about 120-130 kDa form); sialylated O-glycans and tyrosine sulfation are shown to matter for selectin binding); assay: SPR; CD34 captured from KG1a lysate on 563-mAb, E-Ig injected, 150 mM NaCl; apparent rate constant; mean ± SEM
T1 construct: mature; also called E-selL CD34
T1 sequence (looked up): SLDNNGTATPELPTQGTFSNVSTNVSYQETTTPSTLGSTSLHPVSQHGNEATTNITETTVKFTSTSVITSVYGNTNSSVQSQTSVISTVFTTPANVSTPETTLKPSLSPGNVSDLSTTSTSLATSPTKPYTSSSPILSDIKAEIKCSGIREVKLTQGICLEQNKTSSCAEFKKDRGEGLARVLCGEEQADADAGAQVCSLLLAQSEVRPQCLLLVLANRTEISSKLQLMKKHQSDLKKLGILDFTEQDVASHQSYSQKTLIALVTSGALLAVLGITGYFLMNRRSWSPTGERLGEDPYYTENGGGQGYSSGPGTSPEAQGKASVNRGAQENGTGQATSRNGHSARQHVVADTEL

[4] = molecular target: T1, CD34, native glycoprotein from human …; assay: SPR; CD34 captured from KG1a lysate on 563-mAb, E-Ig injected, 150 mM NaCl; apparent rate constant; 2nd experiment
[5] = molecular target: CD44 (HCELL), native glycoprotein from human HSPCs (KG1a, CD34^pos fraction) (human) (UniProt P16070); assay: SPR; CD44 captured from KG1a lysate on Hermes-3-mAb, E-Ig injected (3.9-2000 nM), 150 mM NaCl; steady-state model; 2nd experiment
[6] = molecular target: CD44 (HCELL), native glycoprotein from human HSPCs (KG1a, CD34^pos fraction) (human) (UniProt P16070); assay: SPR; CD44 captured from KG1a lysate on Hermes-3-mAb, E-Ig injected (3.9-2000 nM), 150 mM NaCl; steady-state model; 3rd experiment
[7] = molecular target: T2, PSGL-1, native glycoprotein from human HSPCs (KG1a, CD34^pos-BM) (human, UniProt Q14242 42-412, native glycosylation and tyrosine sulfation); assay: SPR; PSGL-1 captured from KG1a lysate on KPL-1-mAb, E-Ig injected, 150 mM NaCl; apparent rate constant; 1st experiment
T2 construct: mature; also called P-selectin glycoprotein ligand-1
T2 sequence (looked up): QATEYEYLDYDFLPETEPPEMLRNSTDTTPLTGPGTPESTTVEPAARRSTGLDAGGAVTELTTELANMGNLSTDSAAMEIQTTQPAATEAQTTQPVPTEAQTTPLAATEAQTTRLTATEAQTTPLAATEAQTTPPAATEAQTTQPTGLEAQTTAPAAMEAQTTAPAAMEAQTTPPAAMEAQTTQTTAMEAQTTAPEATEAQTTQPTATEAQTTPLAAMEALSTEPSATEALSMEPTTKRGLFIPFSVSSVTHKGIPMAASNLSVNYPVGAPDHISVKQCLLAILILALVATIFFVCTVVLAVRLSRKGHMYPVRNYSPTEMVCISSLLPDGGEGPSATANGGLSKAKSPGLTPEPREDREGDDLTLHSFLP

[8] = molecular target: T2, PSGL-1, native glycoprotein from human …; assay: SPR; PSGL-1 captured from KG1a lysate on KPL-1-mAb, E-Ig injected, 150 mM NaCl; apparent rate constant; 2nd experiment
[9] = molecular target: T3, CD43, native glycoprotein from KG1a cells (human, UniProt P16150 20-400, native glycosylation); assay: SPR; CD43 captured from KG1a lysate on polyclonal CD43 Ab, E-Ig injected, 150 mM NaCl; apparent rate constant; mean ± SEM
T3 construct: mature
T3 sequence (looked up): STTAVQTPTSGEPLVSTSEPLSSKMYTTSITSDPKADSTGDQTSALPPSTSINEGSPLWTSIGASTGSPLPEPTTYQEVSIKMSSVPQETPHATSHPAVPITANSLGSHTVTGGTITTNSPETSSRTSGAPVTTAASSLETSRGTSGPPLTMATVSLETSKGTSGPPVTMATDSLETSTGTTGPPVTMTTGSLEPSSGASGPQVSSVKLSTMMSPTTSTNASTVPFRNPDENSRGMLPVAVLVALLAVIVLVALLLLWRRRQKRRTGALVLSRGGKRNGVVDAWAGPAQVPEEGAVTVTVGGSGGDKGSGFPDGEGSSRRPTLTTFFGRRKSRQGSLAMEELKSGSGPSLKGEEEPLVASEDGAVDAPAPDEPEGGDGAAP

[10] = molecular target: T3, CD43, native glycoprotein from KG1a …; assay: SPR; CD43 captured from KG1a lysate on polyclonal CD43 Ab, E-Ig injected, 150 mM NaCl; apparent rate constant; 2nd experiment
[11] = molecular target: T2, PSGL-1, native glycoprotein from human …; assay: SPR; PSGL-1 captured from KG1a lysate on KPL-1-mAb, E-Ig injected (3.9-2000 nM), 150 mM NaCl; steady-state model; 1st experiment
[12] = molecular target: T3, CD43, native glycoprotein from KG1a …; assay: SPR; CD43 captured from KG1a lysate on polyclonal CD43 Ab, E-Ig injected (3.9-2000 nM), 150 mM NaCl; steady-state model; mean ± SEM

CD44 (HCELL), native glycoprotein from human HSPCs (KG1a, CD34^pos fraction) (human), sequence (P16070 21-742): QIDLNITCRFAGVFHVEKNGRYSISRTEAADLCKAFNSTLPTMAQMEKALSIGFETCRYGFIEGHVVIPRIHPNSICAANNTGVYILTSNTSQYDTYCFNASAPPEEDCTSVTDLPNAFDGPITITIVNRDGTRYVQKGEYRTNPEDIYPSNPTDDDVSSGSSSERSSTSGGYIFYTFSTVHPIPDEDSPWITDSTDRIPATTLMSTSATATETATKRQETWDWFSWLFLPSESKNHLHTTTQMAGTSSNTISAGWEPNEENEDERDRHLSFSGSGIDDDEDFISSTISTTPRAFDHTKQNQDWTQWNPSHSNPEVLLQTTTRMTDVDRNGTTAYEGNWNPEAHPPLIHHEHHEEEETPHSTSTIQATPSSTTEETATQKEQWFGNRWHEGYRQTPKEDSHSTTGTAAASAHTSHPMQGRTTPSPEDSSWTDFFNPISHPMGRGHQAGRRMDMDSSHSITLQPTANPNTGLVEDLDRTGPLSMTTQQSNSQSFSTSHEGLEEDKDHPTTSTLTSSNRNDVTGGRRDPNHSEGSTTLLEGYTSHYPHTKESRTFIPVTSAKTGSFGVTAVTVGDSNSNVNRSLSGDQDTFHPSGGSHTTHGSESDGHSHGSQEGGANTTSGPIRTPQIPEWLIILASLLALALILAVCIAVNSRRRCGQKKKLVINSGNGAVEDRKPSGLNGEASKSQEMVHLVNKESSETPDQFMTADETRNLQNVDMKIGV

B1: recombinant E-selectin human immunoglobulin chimeric protein (Fc fusion)
chain: WSYNTSTEAMTYDEASAYCQQRYTHLVAIQNKEEIEYLNSILSYSPSYYWIGIRKVNNVWVWVGTQKPLTEEAKNWAPGEPNNRQKDEDCVEIYIKREKDVGMWNDERCSKKKLALCYTAACTNTSCSGHGECVETINNYTCKCDPGFSGLKCEQIVNCTALESPEHGSLVCSHPLGNFSYNSSCSISCDRGYLPSSMETMQCMSSGEWSAPIPACNVVECDAVTNPANGFVECFQNPGSFPWNTTCTFDCEEGFELMGAQSLQCTSSGNWDNEKPTCKAVTCRAVRQPQNGSVRCSHSPAGEFTFKSSCNFTCEEGFMLQGPAQVECTTQGQWTQQIPVCEAFQCTALSNPERGYMNCLPSASGSFRYGSSCEFSCEQGFVLKGSKRLQCGPTGEWDNEKPTCEAVRCDAVHQPPKGLVRCAHSPIGEFTYKSSCAFSCEEGFELHGSTQLECTSQGQWTEEVPSCQVVKCSSLAVPGKINMSCSGEPVFGTVCKFACPEGWTLNGSAARTCGATGHWSGLLPTCEAPTESNIP
Q: With B1 as the binder, how does the % E-Ig binding assuming 1:1 stoichiometry [1] read?
A: 23%

Q: And the koff [2]?
A: 0.000273 s⁻¹

Q: What about the kon [2] of the same binder?
A: 1280 M⁻¹ s⁻¹

Q: And the koff [3]?
A: 0.00026 s⁻¹

Q: And the kon [3]?
A: 1230 M⁻¹ s⁻¹

Q: And the koff [4]?
A: 0.00016 s⁻¹

Q: What about the kon [4] of the same binder?
A: 597 M⁻¹ s⁻¹

Q: What about the Kd [5] of the same binder?
A: 252 nM

Q: And the Kd [6]?
A: 214 nM

Q: What about the koff [7] of the same binder?
A: 0.00015 s⁻¹

Q: What about the kon [7] of the same binder?
A: 438 M⁻¹ s⁻¹

Q: What about the koff [8] of the same binder?
A: 0.000165 s⁻¹

Q: What about the kon [8] of the same binder?
A: 797 M⁻¹ s⁻¹

Q: What about the koff [9] of the same binder?
A: 0.00045 s⁻¹

Q: What about the koff [10] of the same binder?
A: 0.00042 s⁻¹

Q: What about the kon [10] of the same binder?
A: 1060 M⁻¹ s⁻¹

Q: What about the Kd [11] of the same binder?
A: 342 nM

Q: What about the Kd [12] of the same binder?
A: 442 nM
